Source: the supplement of paper PMC10065799, “High-throughput profiling of sequence recognition by tyrosine kinases and SH2 domains using bacterial peptide display” (eLife, 2023)

How the values were obtained:
[1] = target: FGFR1 (UniProt P11362); assay: phosphorylation enrichment, bacterial display (enrichment ratio); higher = better substrate or ligand; peptides without Tyr show the background
[2] = system: AncSZ; assay: as above
[3] = system: c-Src; assay: as above
[4] = target: Fes (UniProt P07332); assay: as above
Sequence of Fes (P07332 whole entry, looked up): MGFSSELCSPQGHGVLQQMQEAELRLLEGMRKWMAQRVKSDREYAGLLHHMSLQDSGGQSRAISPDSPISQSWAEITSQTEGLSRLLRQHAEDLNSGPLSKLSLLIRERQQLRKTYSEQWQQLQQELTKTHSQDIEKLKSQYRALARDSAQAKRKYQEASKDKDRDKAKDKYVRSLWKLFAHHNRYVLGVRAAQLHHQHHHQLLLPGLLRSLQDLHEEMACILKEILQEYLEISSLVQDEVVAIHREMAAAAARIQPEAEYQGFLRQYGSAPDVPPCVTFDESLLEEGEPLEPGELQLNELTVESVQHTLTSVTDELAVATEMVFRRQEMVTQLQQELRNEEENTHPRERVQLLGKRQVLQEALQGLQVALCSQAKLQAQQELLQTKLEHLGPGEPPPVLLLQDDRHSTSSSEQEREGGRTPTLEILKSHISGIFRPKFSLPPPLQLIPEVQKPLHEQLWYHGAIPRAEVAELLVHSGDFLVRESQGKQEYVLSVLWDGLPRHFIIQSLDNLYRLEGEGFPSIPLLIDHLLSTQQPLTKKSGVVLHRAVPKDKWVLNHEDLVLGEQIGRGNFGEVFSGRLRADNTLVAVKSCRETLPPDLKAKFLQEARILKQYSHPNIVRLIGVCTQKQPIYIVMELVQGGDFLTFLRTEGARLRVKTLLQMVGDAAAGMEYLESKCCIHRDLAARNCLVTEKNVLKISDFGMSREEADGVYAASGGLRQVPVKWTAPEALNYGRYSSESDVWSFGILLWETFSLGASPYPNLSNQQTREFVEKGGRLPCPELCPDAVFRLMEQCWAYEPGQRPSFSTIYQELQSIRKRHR

[5] = target: Jak2 (UniProt O60674); assay: as above
[6] = target: EPHB2 (UniProt P29323); assay: as above
Sequence of EPHB2 (P29323 whole entry, looked up): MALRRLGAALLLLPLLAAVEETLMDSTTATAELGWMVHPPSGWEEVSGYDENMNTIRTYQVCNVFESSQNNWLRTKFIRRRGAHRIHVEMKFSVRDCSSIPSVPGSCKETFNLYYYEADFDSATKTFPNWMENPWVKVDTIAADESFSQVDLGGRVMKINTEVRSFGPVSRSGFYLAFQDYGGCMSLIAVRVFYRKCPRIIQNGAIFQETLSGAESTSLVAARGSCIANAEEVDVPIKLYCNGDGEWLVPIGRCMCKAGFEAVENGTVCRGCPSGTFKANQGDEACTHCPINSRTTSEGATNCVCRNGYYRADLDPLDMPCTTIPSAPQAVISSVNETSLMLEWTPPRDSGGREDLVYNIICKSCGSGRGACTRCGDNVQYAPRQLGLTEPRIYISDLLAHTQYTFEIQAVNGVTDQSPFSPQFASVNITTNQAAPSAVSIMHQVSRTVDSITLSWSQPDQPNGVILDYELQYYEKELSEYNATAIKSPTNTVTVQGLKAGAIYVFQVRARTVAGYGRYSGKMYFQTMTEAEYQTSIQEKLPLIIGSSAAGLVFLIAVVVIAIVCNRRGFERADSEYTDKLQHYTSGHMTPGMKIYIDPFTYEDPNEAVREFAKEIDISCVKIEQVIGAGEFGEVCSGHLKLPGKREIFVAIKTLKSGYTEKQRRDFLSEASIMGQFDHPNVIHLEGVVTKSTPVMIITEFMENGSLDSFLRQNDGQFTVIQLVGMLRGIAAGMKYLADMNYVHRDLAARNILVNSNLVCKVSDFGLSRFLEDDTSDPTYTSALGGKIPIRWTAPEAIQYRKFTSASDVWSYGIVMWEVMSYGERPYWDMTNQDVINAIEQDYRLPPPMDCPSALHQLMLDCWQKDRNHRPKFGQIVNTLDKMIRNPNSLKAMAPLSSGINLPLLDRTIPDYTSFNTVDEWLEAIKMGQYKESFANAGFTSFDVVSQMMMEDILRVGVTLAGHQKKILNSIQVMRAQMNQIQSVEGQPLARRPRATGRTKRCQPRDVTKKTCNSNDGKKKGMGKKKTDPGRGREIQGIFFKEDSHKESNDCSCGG

[7] = target: Fyn (UniProt P06241); assay: as above
Sequence of Fyn (P06241 whole entry, looked up): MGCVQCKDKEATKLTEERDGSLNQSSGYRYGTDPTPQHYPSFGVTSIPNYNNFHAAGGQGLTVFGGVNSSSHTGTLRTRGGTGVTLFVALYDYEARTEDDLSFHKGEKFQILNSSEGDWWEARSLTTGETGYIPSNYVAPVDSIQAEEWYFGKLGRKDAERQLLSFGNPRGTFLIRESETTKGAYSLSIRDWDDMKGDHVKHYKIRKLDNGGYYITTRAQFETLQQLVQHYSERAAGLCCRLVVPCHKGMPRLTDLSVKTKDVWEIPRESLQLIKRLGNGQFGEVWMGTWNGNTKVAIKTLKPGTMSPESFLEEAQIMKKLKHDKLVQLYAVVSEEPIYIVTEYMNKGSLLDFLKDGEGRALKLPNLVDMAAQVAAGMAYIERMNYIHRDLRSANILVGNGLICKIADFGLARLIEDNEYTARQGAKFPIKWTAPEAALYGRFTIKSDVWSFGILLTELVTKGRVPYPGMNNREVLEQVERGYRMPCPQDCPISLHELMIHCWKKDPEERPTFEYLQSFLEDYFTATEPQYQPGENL

[8] = system: Fer (mouse); assay: as above
[9] = system: c-Abl (mouse); assay: as above
[10] = target: EPHB1 (UniProt P54762); assay: as above
[11] = target: Hck (UniProt P08631); assay: as above
Sequence of Hck (P08631 whole entry, looked up): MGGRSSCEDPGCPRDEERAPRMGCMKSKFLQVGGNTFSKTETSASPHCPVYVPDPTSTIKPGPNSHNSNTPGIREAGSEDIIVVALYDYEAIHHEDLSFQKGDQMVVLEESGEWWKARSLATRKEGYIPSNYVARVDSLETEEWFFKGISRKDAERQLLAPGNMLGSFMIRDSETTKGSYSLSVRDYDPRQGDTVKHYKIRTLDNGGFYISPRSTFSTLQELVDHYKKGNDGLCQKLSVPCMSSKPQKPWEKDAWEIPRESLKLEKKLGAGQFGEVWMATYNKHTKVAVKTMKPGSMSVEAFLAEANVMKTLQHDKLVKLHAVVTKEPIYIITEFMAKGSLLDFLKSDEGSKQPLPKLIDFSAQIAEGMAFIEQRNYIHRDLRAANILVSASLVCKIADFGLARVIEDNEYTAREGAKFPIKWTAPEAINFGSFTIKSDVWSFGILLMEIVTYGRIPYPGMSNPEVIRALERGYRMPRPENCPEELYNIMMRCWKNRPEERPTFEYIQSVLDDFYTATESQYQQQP

[12] = target: MERTK (UniProt Q12866); assay: as above
Sequence of MERTK (Q12866 whole entry, looked up): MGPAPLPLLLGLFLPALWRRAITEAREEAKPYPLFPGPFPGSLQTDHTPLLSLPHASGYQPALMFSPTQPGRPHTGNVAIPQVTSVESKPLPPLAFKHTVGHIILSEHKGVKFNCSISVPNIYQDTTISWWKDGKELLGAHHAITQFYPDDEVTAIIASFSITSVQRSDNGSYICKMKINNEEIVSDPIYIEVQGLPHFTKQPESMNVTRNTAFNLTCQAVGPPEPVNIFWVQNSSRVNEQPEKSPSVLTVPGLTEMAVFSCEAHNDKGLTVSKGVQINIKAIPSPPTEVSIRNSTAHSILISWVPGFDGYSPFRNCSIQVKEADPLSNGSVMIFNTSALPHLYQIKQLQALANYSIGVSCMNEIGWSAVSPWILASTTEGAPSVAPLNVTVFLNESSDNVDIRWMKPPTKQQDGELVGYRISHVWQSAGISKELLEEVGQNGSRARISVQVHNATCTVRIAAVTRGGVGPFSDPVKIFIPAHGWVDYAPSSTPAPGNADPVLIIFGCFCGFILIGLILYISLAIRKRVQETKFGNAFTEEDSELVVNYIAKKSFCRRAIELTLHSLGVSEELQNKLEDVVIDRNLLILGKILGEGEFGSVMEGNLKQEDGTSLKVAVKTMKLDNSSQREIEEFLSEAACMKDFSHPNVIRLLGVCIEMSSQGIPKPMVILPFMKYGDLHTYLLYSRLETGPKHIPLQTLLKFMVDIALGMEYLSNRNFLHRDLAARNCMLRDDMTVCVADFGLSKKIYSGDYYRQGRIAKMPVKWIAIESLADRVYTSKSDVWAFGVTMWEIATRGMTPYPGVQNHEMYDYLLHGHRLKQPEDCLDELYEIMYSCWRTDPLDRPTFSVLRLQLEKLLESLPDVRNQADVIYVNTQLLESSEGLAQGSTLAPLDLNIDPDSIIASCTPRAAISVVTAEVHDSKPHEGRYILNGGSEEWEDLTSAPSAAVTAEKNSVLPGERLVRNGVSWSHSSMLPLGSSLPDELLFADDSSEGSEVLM

[13] = target: FGFR3 (UniProt P22607); assay: as above
Sequence of FGFR3 (P22607 whole entry, looked up): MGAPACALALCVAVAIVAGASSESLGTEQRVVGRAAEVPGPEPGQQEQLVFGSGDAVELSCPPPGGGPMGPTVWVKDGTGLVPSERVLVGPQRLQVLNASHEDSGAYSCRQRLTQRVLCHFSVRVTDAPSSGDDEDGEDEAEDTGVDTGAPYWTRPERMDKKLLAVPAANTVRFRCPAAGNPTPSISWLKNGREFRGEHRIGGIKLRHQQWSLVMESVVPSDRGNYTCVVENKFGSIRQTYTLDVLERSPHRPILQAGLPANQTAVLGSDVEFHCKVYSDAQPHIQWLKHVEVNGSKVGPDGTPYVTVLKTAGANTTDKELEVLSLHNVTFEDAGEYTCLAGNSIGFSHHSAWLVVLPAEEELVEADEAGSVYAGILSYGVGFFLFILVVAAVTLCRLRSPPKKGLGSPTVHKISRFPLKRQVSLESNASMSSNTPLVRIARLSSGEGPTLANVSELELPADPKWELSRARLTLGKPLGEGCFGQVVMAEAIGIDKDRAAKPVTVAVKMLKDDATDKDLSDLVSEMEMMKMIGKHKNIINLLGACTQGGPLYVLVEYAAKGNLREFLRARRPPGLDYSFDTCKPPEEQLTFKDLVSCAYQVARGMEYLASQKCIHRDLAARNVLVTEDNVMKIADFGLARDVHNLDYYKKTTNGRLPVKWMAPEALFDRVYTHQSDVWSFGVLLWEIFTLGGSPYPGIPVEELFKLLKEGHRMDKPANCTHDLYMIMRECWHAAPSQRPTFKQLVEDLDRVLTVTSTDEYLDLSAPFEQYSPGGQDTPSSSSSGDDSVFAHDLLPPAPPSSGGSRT

[14] = target: Grb2 SH2 (UniProt P62993); assay: SH2 binding enrichment of the phosphorylated peptide, bacterial display (enrichment ratio); higher = better substrate or ligand; peptides without Tyr show the background
Sequence of Grb2 SH2 (P62993 whole entry, looked up): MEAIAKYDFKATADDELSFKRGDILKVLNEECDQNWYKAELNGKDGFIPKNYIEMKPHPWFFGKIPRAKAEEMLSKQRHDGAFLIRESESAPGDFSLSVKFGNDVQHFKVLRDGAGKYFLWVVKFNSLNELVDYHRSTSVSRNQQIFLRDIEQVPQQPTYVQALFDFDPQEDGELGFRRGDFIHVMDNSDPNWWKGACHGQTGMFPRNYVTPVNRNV

[15] = target: SHP2-C SH2; assay: as above
[16] = target: c-Src SH2; assay: as above
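For SH2 binding enrichment of the phosphorylated peptide, bacterial display in this document: peptide library displayed on the E. coli surface as eCPX fusions, selected cells deep-sequenced, score is each peptide's frequency after selection divided by its frequency in the input.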
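For phosphorylation enrichment, bacterial display in this document: 11-residue human phosphosite peptides and single-mutation variants displayed on the E. coli surface, counted by deep sequencing, each peptide's frequency after selection divided by its frequency in the unselected input library; frequency after pTyr selection over input frequency; kinase dosed for 20-30% of maximal phosphorylation in three min.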

Row | Sequence | phosphorylation enrichment [1] | phosphorylation enrichment [2] | phosphorylation enrichment [3] | phosphorylation enrichment [4] | phosphorylation enrichment [5] | phosphorylation enrichment [6] | phosphorylation enrichment [7] | phosphorylation enrichment [8] | phosphorylation enrichment [9] | phosphorylation enrichment [10] | phosphorylation enrichment [11] | phosphorylation enrichment [12] | phosphorylation enrichment [13] | SH2 binding enrichment [14] | SH2 binding enrichment [15] | SH2 binding enrichment [16]
1 | SVVVPYEPPEL [TP53_Y220_V225L] | 0.459 | 0.905 | 0.437 | 0.869 | 0.811 | 0.524 | 0.494 | 0.491 | 0.54 | 0.489 | 0.503 | 0.424 | 0.666 | 0.741 | 0.717 | 0.683
2 | CNPLCYPTIMI [OR6K6_Y160_R159C] | 1.71 | 0.867 | 0.416 | 0.821 | 0.721 | 0.524 | 0.408 | 1.37 | 0.596 | 0.518 | 0.442 | 0.917 | 0.828 | 0.622 | 0.617 | 0.42
3 | KFLENYLNRLL [PLD2_Y169_YF] | 0.499 | 0.694 | 0.481 | 0.768 | 0.762 | 0.642 | 0.37 | 0.462 | 0.471 | 0.464 | 0.415 | 0.37 | 0.562 | 1.67 | 1.79 | 1.51
4 | HQKKPYCHTHN [NRAP_Y53_A56T] | 1.27 | 1.88 | 0.794 | 2.33 | 3.44 | 0.854 | 1.04 | 1.34 | 1.21 | 1.7 | 1.13 | 0.627 | 3.53 | 1.45 | 1.55 | 1.08
5 | TEALFYTDDPA [ADPRS_Y75_T79P_YF] | 0.734 | 1.62 | 0.797 | 1.82 | 1.65 | 0.894 | 0.645 | 0.863 | 1.25 | 1.05 | 0.76 | 0.699 | 1.3 | 0.636 | 0.397 | 0.626
6 | RAILNYIASKY [GSTA3_Y74] | 0.652 | 1.44 | 0.81 | 1.59 | 0.942 | 0.795 | 0.719 | 0.748 | 0.92 | 0.665 | 0.594 | 0.466 | 0.89 | 1.19 | 0.747 | 1.17
7 | AKLKDYFIFNK [CCDC42_Y149_YF] | 1.49 | 0.82 | 0.658 | 0.783 | 0.759 | 0.513 | 0.465 | 0.487 | 0.435 | 0.417 | 0.478 | 0.56 | 1 | 1.37 | 0.847 | 0.846
8 | RGFRQDAFDGK [HLA-A_Y140_YF] | 0.488 | 0.575 | 0.633 | 0.633 | 0.461 | 0.475 | 0.414 | 0.487 | 0.935 | 0.454 | 0.396 | 0.559 | 0.73 | 0.711 | 1.05 | 0.412
9 | SLESAYPEGSQ [TTF1_Y357] | 0.61 | 0.877 | 0.406 | 0.968 | 0.712 | 0.574 | 0.539 | 0.457 | 0.601 | 0.463 | 0.593 | 0.366 | 0.629 | 0.861 | 0.814 | 0.522
10 | IKGNMYFENSF [EGFR_Y112_R108K_YF] | 0.516 | 0.991 | 0.657 | 0.951 | 1.02 | 0.446 | 0.533 | 0.471 | 0.897 | 0.589 | 0.397 | 0.539 | 0.677 | 0.932 | 0.784 | 0.619
11 | FTHSDYQFGQR [PKP2_Y166_S169G_YF] | 0.465 | 0.697 | 0.457 | 0.687 | 0.583 | 0.471 | 0.443 | 0.453 | 0.553 | 0.389 | 0.518 | 0.469 | 0.474 | 1 | 1.05 | 0.626
12 | LFQAKYQIRFR [CRLF1_Y272_YF] | 1.03 | 1.83 | 1.02 | 1.6 | 1.64 | 0.69 | 0.643 | 0.972 | 1.31 | 0.698 | 0.524 | 0.868 | 1.35 | 1.19 | 1.32 | 0.813
13 | FRPHLYGTPSR [ADGRE2_Y670_S665F] | 0.747 | 0.682 | 0.572 | 0.842 | 0.611 | 0.458 | 0.546 | 0.945 | 0.718 | 0.481 | 0.948 | 0.513 | 0.511 | 1.98 | 1.65 | 1.77
14 | RAHARYCADAC [ACOT4_Y52_R57C] | 0.436 | 0.601 | 0.41 | 0.677 | 0.61 | 0.499 | 0.344 | 0.518 | 0.889 | 0.402 | 0.45 | 0.437 | 0.395 | 0.915 | 0.898 | 0.872
15 | SVTCTYTPALN [TP53_Y126_S127T] | 0.5 | 1.43 | 0.455 | 1.29 | 1.24 | 0.639 | 0.49 | 0.478 | 0.88 | 0.633 | 0.511 | 0.404 | 0.811 | 0.698 | 0.574 | 0.422
16 | SLVVPYEPPEV [TP53_Y220_V216L] | 0.672 | 1.28 | 0.547 | 1.29 | 1.33 | 0.756 | 0.62 | 0.666 | 1.26 | 0.769 | 0.663 | 0.595 | 0.836 | 0.789 | 0.772 | 0.696
17 | SSQTVYQRVEG [TFR2_Y23] | 0.526 | 0.962 | 0.585 | 0.708 | 0.596 | 0.447 | 0.6 | 0.517 | 0.458 | 0.631 | 0.77 | 0.499 | 0.483 | 0.853 | 2.4 | 2.23

Row | Sequence | phosphorylation enrichment [1] | phosphorylation enrichment [2] | phosphorylation enrichment [3] | phosphorylation enrichment [4] | phosphorylation enrichment [5] | phosphorylation enrichment [6] | phosphorylation enrichment [7] | phosphorylation enrichment [8] | phosphorylation enrichment [9] | phosphorylation enrichment [10] | phosphorylation enrichment [11] | phosphorylation enrichment [12] | phosphorylation enrichment [13] | SH2 binding enrichment [14] | SH2 binding enrichment [15] | SH2 binding enrichment [16]
18 | AQESNYRLLRR [SLC20A2_Y377] | 0.409 | 0.738 | 0.365 | 0.688 | 0.593 | 0.498 | 0.45 | 0.414 | 0.984 | 0.48 | 0.443 | 0.406 | 0.527 | 0.823 | 0.439 | 0.456
19 | TSKLSYLDPRI [TOP1_Y723_N722S] | 0.611 | 0.639 | 0.479 | 0.679 | 0.939 | 0.427 | 0.435 | 0.619 | 0.567 | 0.607 | 0.446 | 0.539 | 0.592 | 0.833 | 0.548 | 0.535
20 | RAVLLYEYVGK [NATD1_Y45] | 3.61 | 3.07 | 5.21 | 4.82 | 0.857 | 35.4 | 6.98 | 19.4 | 1.24 | 28.2 | 10.4 | 11.4 | 3.99 | 1.19 | 1.11 | 1.02
21 | EKLQKYYRKNP [EHHADH_Y682_Q685K] | 0.45 | 0.575 | 0.482 | 0.753 | 0.694 | 0.484 | 0.388 | 0.417 | 0.699 | 0.471 | 0.353 | 0.394 | 0.598 | 0.95 | 1.11 | 0.603
22 | KPGLKYVTFGN [GALNTL5_Y404_YF] | 0.412 | 0.671 | 0.488 | 0.768 | 0.605 | 0.539 | 0.409 | 0.366 | 0.551 | 0.351 | 0.498 | 0.449 | 0.514 | 1.33 | 1.7 | 1.21
23 | QSSEGYGLGDR [KIAA1210_Y564] | 0.538 | 1.03 | 1 | 1.06 | 1.14 | 0.754 | 0.842 | 0.871 | 1.27 | 0.731 | 0.989 | 0.847 | 0.677 | 0.695 | 0.861 | 0.419
24 | PDGHEYIYVDP [PDGFRA_Y572] | 11.7 | 5.55 | 3.24 | 1.39 | 1.81 | 2.66 | 1.32 | 2.64 | 2.84 | 3.21 | 1.6 | 1.46 | 7.36 | 2.06 | 0.748 | 0.752
25 | WDLPEYSFKDP [ITGA3_Y237_S235P_YF] | 0.486 | 2.37 | 1.02 | 1.25 | 1.18 | 0.571 | 3.1 | 0.421 | 0.871 | 0.558 | 1.19 | 0.381 | 0.836 | 0.931 | 1.04 | 0.502
26 | ATPKGYEPDAS [OTC_Y223] | 0.49 | 0.738 | 0.541 | 0.843 | 0.79 | 0.575 | 0.501 | 0.508 | 0.729 | 0.439 | 0.444 | 0.489 | 0.59 | 0.933 | 1.02 | 0.557
27 | HEEDNYIELIP [NWD2_Y566] | 6.02 | 3.19 | 1.3 | 2.29 | 2.21 | 1.91 | 0.905 | 1.27 | 1.89 | 2.98 | 1.02 | 1.33 | 5.2 | 0.53 | 0.793 | 0.458
28 | LSSNLYFRWLT [CNGA3_Y168_P163L_YF] | 1.15 | 1.76 | 1.21 | 1.64 | 5.07 | 0.749 | 0.595 | 1.01 | 1.79 | 0.783 | 1.73 | 4.32 | 1.51 | 0.655 | 1.01 | 0.531
29 | NTGDDYDLFGG [PTPN11_Y63_Y62D_YF] | 0.546 | 1.42 | 1.02 | 1.21 | 1.05 | 0.608 | 0.722 | 0.623 | 0.826 | 0.586 | 0.618 | 0.412 | 0.652 | 0.666 | 0.439 | 0.376
30 | GFAGKYIAMVM [CYP19A1_Y441_C437Y_YF] | 0.454 | 0.694 | 0.599 | 0.858 | 0.594 | 0.823 | 0.453 | 0.539 | 0.473 | 0.41 | 0.556 | 0.525 | 0.49 | 0.821 | 0.81 | 0.755
31 | EDAHHYLCKEV [JAK2_Y382_A377E] | 0.588 | 0.799 | 0.366 | 0.857 | 0.632 | 0.493 | 0.542 | 0.441 | 0.657 | 0.656 | 0.439 | 0.411 | 0.778 | 1.08 | 0.781 | 0.603
32 | PAVGIYNDNIN [CDCP1_Y707] | 0.612 | 1.07 | 1.12 | 1.08 | 0.925 | 0.685 | 1.29 | 0.6 | 0.71 | 0.806 | 1.17 | 0.641 | 0.575 | 0.749 | 0.729 | 0.481
33 | AGADGYGFLAP [FOXL2_Y186_YF] | 0.652 | 0.846 | 0.797 | 0.737 | 0.857 | 0.508 | 0.517 | 0.611 | 0.698 | 0.391 | 0.71 | 0.618 | 0.694 | 0.832 | 0.661 | 0.456
